{"source": "paper PMC1110745", "binders": {"B1": {"name": "O58 (dsDNA)", "DNA 1": "GATTGTCCCTACACTCGCCTCAGGCGATCATCGGAATACACGATGCTTGG", "DNA 2": "CCAAGCATCGTGTATTCCGATGATCGCCTGAGGCGAGTGTAGGGACAATC"}}, "target": "GST-AP-2alpha (Homo sapiens, UniProt P05549 1-437)", "sequence (P05549 whole entry)": "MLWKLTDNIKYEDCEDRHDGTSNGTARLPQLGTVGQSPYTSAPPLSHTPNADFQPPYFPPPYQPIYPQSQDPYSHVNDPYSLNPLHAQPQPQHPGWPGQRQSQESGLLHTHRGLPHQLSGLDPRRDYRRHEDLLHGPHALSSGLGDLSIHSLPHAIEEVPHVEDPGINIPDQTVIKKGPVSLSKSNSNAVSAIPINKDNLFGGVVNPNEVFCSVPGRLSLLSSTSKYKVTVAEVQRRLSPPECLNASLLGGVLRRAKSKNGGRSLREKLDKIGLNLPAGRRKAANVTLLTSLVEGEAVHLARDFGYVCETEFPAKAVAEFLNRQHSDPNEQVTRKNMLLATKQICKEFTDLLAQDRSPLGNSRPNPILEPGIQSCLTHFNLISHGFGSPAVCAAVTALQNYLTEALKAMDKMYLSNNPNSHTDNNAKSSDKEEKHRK", "test": "competition", "data": [{"binder": "B1", "values": [{"measurement": "binding result", "result": "binds"}]}]}
